In series [1] the test system is biotinylated recombinant Notch1 substrate N1-Sb1.
Series [2] deals with N1-Sb1 substrate with P2 substitution C1752M.
Series [3] concerns N1-Sb1 substrate with P2 substitution C1752A.
Series [4] relates to N1-Sb1 substrate with P2 substitution C1752V.

biotinylated recombinant Notch1 substrate N1-Sb1, sequence (chain, as listed by the source): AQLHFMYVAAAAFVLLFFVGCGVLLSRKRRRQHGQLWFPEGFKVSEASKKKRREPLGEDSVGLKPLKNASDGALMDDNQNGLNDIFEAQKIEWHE

As for “γ-secretase with M146V PS1 (membrane of M146V PS1 knock-in mouse brain)”, the Km entry in series [1] is “The Km values of WT and M146V PS1 are 60 and 48 nM, respectively”. In series [2], the “rate of γ-secretase cleavage compared with WT substrate” value (shortened to “rate … compared with WT substrate”) is “enhanced activity for M146V knock-in PS1 (127.4±3.7%)”.
As to “γ-secretase with wild-type PS1 (membrane of N2a cells stably expressing WT PS1)”, the “rate … compared with WT substrate” value is “significantly reduced reactivity for all three forms of γ-secretase (20-30% remaining)” in series [3]; “had no effect on WT (left panel) and E280A PS1 (right panel)” in series [4]; “C1752M substrate had no effect on WT (left panel)” in series [2]. In series [1], the Km entry was “the Km values for N1-Sb1 cleavage by PS1 wild-type, M146L, and E280A FAD mutants are 70, 49, and 50 nM, respectively”.
As for “γ-secretase with E280A PS1 (membrane of N2a cells stably expressing E280A PS1)”, the “rate … compared with WT substrate” value in series [3] was “significantly reduced reactivity for all three forms of γ-secretase (20-30% remaining)”; in series [4], “had no effect on WT (left panel) and E280A PS1 (right panel)”; in series [2], “E280A (185.5±7.4%) PS1”. For the same substance, the Km result in series [1] is “the Km values for N1-Sb1 cleavage by PS1 wild-type, M146L, and E280A FAD mutants are 70, 49, and 50 nM, respectively”.
With γ-secretase of HeLa cell membrane, the “apparent Km” value in series [1] is recorded as “the apparent Km of N1-Sb1 cleavage by γ-secretase is 0.15±0.03 µM”.
In the case of “γ-secretase with M146L PS1 (membrane of N2a cells stably expressing M146L PS1)”, the “rate … compared with WT substrate” value in series [3] is reported as “significantly reduced reactivity for all three forms of γ-secretase (20-30% remaining)”; in series [4] it was “considerably increased reactivity for M146L PS1 γ-secretase (141.3±17.9%0”; in series [2] it was “significantly enhanced activity for M146L (166.4±6.1%)”. Also, the Km entry in series [1] was “the Km values for N1-Sb1 cleavage by PS1 wild-type, M146L, and E280A FAD mutants are 70, 49, and 50 nM, respectively”.
In the case of “γ-secretase with wild type PS1 (membrane of knock-in wild type PS1 mouse brain)”, the Km result in series [1] was “The Km values of WT and M146V PS1 are 60 and 48 nM, respectively”. In addition, the “rate … compared with WT substrate” value in series [2] is “C1752M substrate also had no effect on WT PS1 (left panel)”.
